Drawing on patent publication EP1903056A2, this text covers IC50 for 1 substance.

One assay concerns the target HLA-B*4403 (human). Put plainly: competition binding assay, purified HLA class I.
In another assay the target is HLA-B*4001 (human). Put plainly: competition binding assay, purified HLA class I.

pIC50: −log10 of the molar value.

As a reminder, the pIC50 is the negative decadic logarithm of the IC50, by convention in mol/L. A higher pIC50 goes with a small IC50. Turning to “WEELSML (MAGE2 position 234, 7-mer) (peptide)”, the negative-log IC50 (pIC50) with HLA-B*4403 (human) is 5.70; with HLA-B*4001 (human) it was 4.98.
